Measurements taken from article doi:10.1101/2024.06.06.597810.
pKd: −log10 of the molar value.

Molecular target: Biotin-labeled MHV stem helix peptide (MHV)
Experiment: BLI

S2P6 WT Fab
pKd: 7.15
